Assay results published in patent US20260242478A1 (published 2026).
Where no end group is shown, it is not given here.

B1: Phage-2962 (peptide)
peptide: VQSLCVPYWMCTGF
modifications: cysteine pairing not given here; also: peptide displayed as fusion to phage pIII
notes: Clonal phage of the peptide-180 optimisation library, tested as crude phage supernatant; not shown: bacteriophage pIII coat protein to which the peptide is fused for display
B2: Phage-2963 (peptide)
peptide: NLPLCKPAWMCKWL
modifications: cysteine pairing not given here; also: peptide displayed as fusion to phage pIII
notes: as for B1
B3: Phage-2964 (peptide)
peptide: PGPLCVPEWMCIGF
modifications: cysteine pairing not given here; also: peptide displayed as fusion to phage pIII
notes: as for B1
B4: Phage-2965 (peptide)
peptide: LFKMCQPSWMCDGF
modifications: cysteine pairing not given here; also: peptide displayed as fusion to phage pIII
notes: as for B1
B5: Phage-2966 (peptide)
peptide: QTPVCIPEWMCTGF
modifications: cysteine pairing not given here; also: peptide displayed as fusion to phage pIII
notes: as for B1
B6: Phage-2967 (peptide)
peptide: GERYCVPAWMCAGL
modifications: cysteine pairing not given here; also: peptide displayed as fusion to phage pIII
notes: as for B1
B7: Phage-2968 (peptide)
peptide: WEAMCQPLWMCTGF
modifications: cysteine pairing not given here; also: peptide displayed as fusion to phage pIII
notes: as for B1
B8: Phage-2969 (peptide)
peptide: LDIWCVPAWMCHGF
modifications: cysteine pairing not given here; also: peptide displayed as fusion to phage pIII
notes: as for B1
B9: Phage-2970 (peptide)
peptide: VYPLCKPSWMCSGL
modifications: cysteine pairing not given here; also: peptide displayed as fusion to phage pIII
notes: as for B1
B10: Phage-2971 (peptide)
peptide: DIPICRPQWMCIGF
modifications: cysteine pairing not given here; also: peptide displayed as fusion to phage pIII
notes: as for B1
B11: Phage-2972 (peptide)
peptide: GDVYCKPAWMCDGF
modifications: cysteine pairing not given here; also: peptide displayed as fusion to phage pIII
notes: as for B1
B12: Phage-2973 (peptide)
peptide: VSPLCVPSWMCVGF
modifications: cysteine pairing not given here; also: peptide displayed as fusion to phage pIII
notes: as for B1
B13: Phage-2974 (peptide)
peptide: VGAACIPDWMCVGF
modifications: cysteine pairing not given here; also: peptide displayed as fusion to phage pIII
notes: as for B1
B14: Phage-2975 (peptide)
peptide: GVPMCVPDWMCHGL
modifications: cysteine pairing not given here; also: peptide displayed as fusion to phage pIII
notes: as for B1
B15: Phage-2939 (peptide)
peptide: ISALCVPDWMCYGF
notes: Peptide-180 library clone, tested as clonal phage (peptide fused to pIII)
B16: Phage-2940 (peptide)
peptide: FDKICVPTWMCTGF
notes: as for B15
B17: Phage-2941 (peptide)
peptide: DVRMCKPSWMCIGL
notes: as for B15
B18: Phage-2942 (peptide)
peptide: ELILCQPRWMCEGF
notes: as for B15
B19: Phage-2943 (peptide)
peptide: EGIYCRPAWMCEGF
notes: as for B15
B20: Phage-2944 (peptide)
peptide: LTPMCKPSWMCDGF
notes: as for B15
B21: Phage-2945 (peptide)
peptide: TVIKCIPAWMCDGF
notes: as for B15
B22: Phage-2946 (peptide)
peptide: EMRMCTPPWMCWGF
notes: as for B15
B23: Phage-2947 (peptide)
peptide: GDHLCRPSWMCVGF
notes: as for B15
B24: Phage-2948 (peptide)
peptide: FPHMCKPEWMCAGF
modifications: cysteine pairing not given here; also: peptide displayed as fusion to phage pIII
B25: Phage-2952 (peptide)
peptide: IMPKCEPIWMCAGF
modifications: cysteine pairing not given here; also: peptide displayed as fusion to phage pIII

Target: T1, PSMA Fab (biotinylated (site not stated))
T1 construct: Biotinylated PSMA Fab captured on neutravidin coated plates in the phage ELISA; also called Anti-PSMA Fab; 006 PSMA Fab
Assay: phage ELISA, biotinylated anti-PSMA Fab on neutravidin plate, anti-M13 HRP detection

| Binder | Phage binding ELISA signal, Anti-PSMA Fab |
| --- | --- |
| B1 | 2.26 |
| B2 | 2.26 |
| B3 | 2.26 |
| B4 | 2.26 |
| B5 | 2.26 |
| B6 | 2.26 |
| B7 | 2.26 |
| B8 | 2.26 |
| B9 | 2.26 |
| B10 | 2.25 |
| B11 | 2.25 |
| B12 | 2.25 |
| B13 | 2.25 |
| B14 | 2.24 |

Target: T2, 006 PSMA Fab (biotinylated (site not stated))
T2 construct: also called Anti-PSMA Fab
Assay: clonal phage ELISA on biotinylated PSMA Fab captured on neutravidin, anti-M13-HRP detection;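 also: crude clonal phage supernatants added to wells preincubated with PSMA antigen in blocking buffer or with blocking buffer alone, brief binding period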

| Binder | Phage binding ELISA signal, Anti-PSMA Fab |
| --- | --- |
| B15 | 2.28 |
| B16 | 2.28 |
| B17 | 2.28 |
| B18 | 2.28 |
| B19 | 2.28 |
| B20 | 2.28 |
| B21 | 2.28 |
| B22 | 2.28 |
| B23 | 2.28 |

Target: T2, 006 PSMA Fab
Assay: clonal phage ELISA on captured PSMA Fab, wells pre-incubated with PSMA antigen as competitor
Method: (§1) Clonal phage were harvested as crude supernatants and screened via standard ELISAs. […] Prior to the addition of clonal phage. wells were incubated with blocking buffer and PSMA antigen or blocking buffer alone. Without washing or aspirating, clonal phage supernatants were then added to the wells and incubated for a short time. Wells were then washed followed by detection of bound phage using a horse radish conjugated anti-M13 antibody.

| Binder | Phage binding ELISA signal, Anti-PSMA Fab in presence of PSMA |
| --- | --- |
| B15 | 0.696 |
| B16 | 0.107 |
| B17 | 0.0754 |
| B18 | 0.0637 |
| B19 | 0.0765 |
| B20 | 0.105 |
| B21 | 0.09 |
| B22 | 0.112 |
| B23 | 0.0649 |

Target: T1, PSMA Fab
Assay: phage ELISA, captured anti-PSMA Fab pre-incubated with PSMA antigen as competitor, anti-M13 HRP detection
Method: as §1

| Binder | Phage binding ELISA signal, Anti-PSMA Fab in presence of PSMA antigen |
| --- | --- |
| B1 | 0.102 |
| B2 | 0.125 |
| B3 | 0.114 |
| B4 | 0.0804 |
| B5 | 0.091 |
| B6 | 0.106 |
| B7 | 0.0968 |
| B8 | 0.0712 |
| B9 | 0.0843 |
| B10 | 0.0617 |
| B11 | 0.0762 |
| B12 | 0.108 |
| B13 | 0.0732 |
| B14 | 0.073 |

Target: T3, PSMA Fab (006 PSMA Fab) (biotinylated (site not stated))
T3 construct: also called Anti-PSMA Fab
Assay: clonal phage ELISA on biotinylated PSMA Fab captured on neutravidin, anti-M13 HRP detection, no PSMA antigen

| Binder | Phage binding ELISA signal, Anti-PSMA Fab |
| --- | --- |
| B24 | 2.28 |
| WDHLCKPDWMCLGF [Phage-2949] | 2.28 |
| SSPICKPMWMCTGF [Phage-2950] | 2.28 |
| ENIMCEPMWMCIGF [Phage-2951] | 2.27 |
| B25 | 2.27 |
| VDIQCKPLWMCIGM [Phage-2953] | 2.27 |
| TLMRCEPSWMCQGF [Phage-2954] | 2.27 |
| TTAYCIPPWMCSGF [Phage-2955] | 2.27 |
| YLQFCKPVWMCTGF [Phage-2956] | 2.27 |
| AYEMCIPAWMCEGF [Phage-2957] | 2.27 |
| EQPLCTPQWMCWGF [Phage-2958] | 2.27 |
| PEFVCKPSWMCQGF [Phage-2959] | 2.26 |
| WEQRCVPEWMCVGF [Phage-2960] | 2.26 |
| ADPVCRPQWMCEGF [Phage-2961] | 2.26 |

Target: T3, PSMA Fab (006 PSMA Fab)
Assay: clonal phage ELISA on biotinylated PSMA Fab captured on neutravidin, anti-M13 HRP detection, competitor PSMA antigen
Method: as §1

| Binder | Phage binding ELISA signal, Anti-PSMA Fab with PSMA antigen |
| --- | --- |
| B24 | 0.0876 |
| WDHLCKPDWMCLGF [Phage-2949] | 0.0766 |
| SSPICKPMWMCTGF [Phage-2950] | 0.0918 |
| ENIMCEPMWMCIGF [Phage-2951] | 0.0839 |
| B25 | 0.0746 |
| VDIQCKPLWMCIGM [Phage-2953] | 0.0643 |
| TLMRCEPSWMCQGF [Phage-2954] | 0.0698 |
| TTAYCIPPWMCSGF [Phage-2955] | 0.15 |
| YLQFCKPVWMCTGF [Phage-2956] | 0.15 |
| AYEMCIPAWMCEGF [Phage-2957] | 0.0905 |
| EQPLCTPQWMCWGF [Phage-2958] | 0.0972 |
| PEFVCKPSWMCQGF [Phage-2959] | 0.0681 |
| WEQRCVPEWMCVGF [Phage-2960] | 0.0987 |
| ADPVCRPQWMCEGF [Phage-2961] | 0.11 |
